Test results: patent publication US20220153854A1 (Ablynx, published 2022)
Positions count from the first letter of the chain named.

How the values were obtained:
[1] = target: T1, human IL-13 (human, UniProt P35225 35-146, limits assumed); experiment: cell-based or functional assay
[2] = target: T2, cyno IL-13 (cynomolgus monkey, UniProt Q0PW92 21-132); experiment: cell-based or functional assay
[3] = target: rhesus IL-13 (rhesus monkey, UniProt Q864V6 19-132, limits assumed); experiment: cell-based or functional assay
Chain of rhesus IL-13 (Q864V6 19-132 limits assumed): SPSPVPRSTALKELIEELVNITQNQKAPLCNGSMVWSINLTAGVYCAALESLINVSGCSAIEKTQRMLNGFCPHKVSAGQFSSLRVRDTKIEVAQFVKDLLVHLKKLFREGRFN

[4] = target: T3, membrane bound human OX40L on CHO-KI cells (human, UniProt P23510 1-183); experiment: cell-based or functional assay
T3 sequence (looked up): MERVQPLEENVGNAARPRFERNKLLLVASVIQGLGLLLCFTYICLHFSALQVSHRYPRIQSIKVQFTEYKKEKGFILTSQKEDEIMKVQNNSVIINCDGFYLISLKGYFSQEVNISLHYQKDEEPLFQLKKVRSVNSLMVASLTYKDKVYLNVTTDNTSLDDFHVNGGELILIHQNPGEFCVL

[5] = target: T4, membrane bound cyno OX40L on CHO-KI cells (cynomolgus monkey, UniProt G7NVH7 1-183); experiment: cell-based or functional assay
T4 sequence: T3 sequence (looked up) with R55Q, K73E

[6] = target: T1, human IL-13; experiment: cell-based or functional assay; remark: listed apart in the source
[7] = target: T5, human serum albumin (human, UniProt P02768 25-609); experiment: Gyrolab in-solution affinity, 2 h incubation; 95% CI 6.7-8.9 nM
T5 construct: also called HSA; HAS
T5 sequence (P02768 25-609 limits assumed): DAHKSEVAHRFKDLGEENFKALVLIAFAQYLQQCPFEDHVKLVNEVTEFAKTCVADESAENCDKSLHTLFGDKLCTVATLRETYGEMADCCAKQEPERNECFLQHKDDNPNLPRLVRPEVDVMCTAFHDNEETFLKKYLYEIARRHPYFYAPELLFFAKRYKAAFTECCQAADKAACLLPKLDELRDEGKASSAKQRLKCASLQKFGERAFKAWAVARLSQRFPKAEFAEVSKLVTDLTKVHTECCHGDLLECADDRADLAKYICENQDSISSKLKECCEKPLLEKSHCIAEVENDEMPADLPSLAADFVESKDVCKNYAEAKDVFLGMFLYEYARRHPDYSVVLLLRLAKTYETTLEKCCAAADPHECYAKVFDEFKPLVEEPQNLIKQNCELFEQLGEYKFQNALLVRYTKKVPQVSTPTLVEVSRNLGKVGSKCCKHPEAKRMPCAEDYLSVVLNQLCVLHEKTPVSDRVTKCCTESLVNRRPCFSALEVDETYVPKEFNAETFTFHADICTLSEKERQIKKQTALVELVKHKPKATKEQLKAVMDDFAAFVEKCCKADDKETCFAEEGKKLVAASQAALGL
Procedure: (§1) Under receptor-controlled measurements a serial dilution of OX40L (ranging from 1.3 μM-0.031 μM), IL-13 (ranging from 0.1 μM-0.25 fM), or serum albumin (ranging from 100 μM-3.2 μM) and a fixed amount of ISVD construct F027100187 (5 nM in case of OX40L, […] in case of IL-13 and 30 nM in case of HSA and cyno SA) were mixed to allow interaction and incubated for either 24 or 48 hours (in case of OX40L and IL-13) or 2 hours (in case of serum albumin) to reach equilibrium.
(§2) Biotinylated human OX40L/IL-13/serum albumin was captured in the microstructures of a Gyrolab Bioaffy 1000 CD, which contains columns of beads and was used as a molecular probe to capture free F027100187 from the equilibrated solution. The mixture of OX40L/IL13/serum albumin and F027100187 (containing free OX40UIL-13/serum albumin, free F027100187 and OX40L/IL13/serum albumin—F027100187 complexes) was allowed to flow through the beads, and a small percentage of free F027100187 was captured, which is proportional to the free ISVD construct concentration. A fluorescently labeled anti-ISVD antibody, ABH0086-Alexa647, was then injected to label any captured F027100187 and after rinsing away excess of fluorescent probe, the change in fluorescence was determined. Fitting of the dilution series was done using Gyrolab Analysis software, where KD- and receptor-controlled curves were analyzed to determine the KD value.

[8] = target: T6, cyno serum albumin (cynomolgus monkey); experiment: Gyrolab in-solution affinity, 2 h incubation; 95% CI 8.3-10.9 nM
T6 construct: also called cyno SA; cynomolgus monkey serum albumin
T6 sequence (A2V9Z4 25-608): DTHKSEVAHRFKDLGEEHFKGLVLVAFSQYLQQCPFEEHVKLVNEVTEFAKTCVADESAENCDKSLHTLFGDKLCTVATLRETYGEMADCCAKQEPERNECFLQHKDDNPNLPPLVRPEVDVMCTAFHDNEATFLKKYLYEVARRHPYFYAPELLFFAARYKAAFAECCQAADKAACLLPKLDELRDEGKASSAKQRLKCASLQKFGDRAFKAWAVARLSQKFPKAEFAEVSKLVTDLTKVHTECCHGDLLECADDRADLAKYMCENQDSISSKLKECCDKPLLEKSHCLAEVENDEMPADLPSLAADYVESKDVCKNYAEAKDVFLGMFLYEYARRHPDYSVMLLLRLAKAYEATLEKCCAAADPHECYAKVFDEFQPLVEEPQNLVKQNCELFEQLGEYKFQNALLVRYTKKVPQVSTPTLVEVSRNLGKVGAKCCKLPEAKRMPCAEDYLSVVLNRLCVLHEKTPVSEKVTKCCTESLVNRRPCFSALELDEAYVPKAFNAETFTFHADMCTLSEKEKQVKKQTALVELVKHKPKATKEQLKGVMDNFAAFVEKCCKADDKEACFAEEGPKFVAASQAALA
Procedure: as §1, §2

[9] = target: T2, cyno IL-13; experiment: Gyrolab in-solution affinity, 48 h incubation; 95% CI 4.7-7.1 pM
Procedure: as §1, §2

[10] = target: T2, cyno IL-13; experiment: Gyrolab in-solution affinity, 48 h incubation; 95% CI 7.0-9.3 pM
Procedure: as §1, §2

[11] = target: T4, membrane bound cyno OX40L on CHO-KI …; experiment: flow cytometry on fixed CHO-KI cells expressing cyno OX40L, 48 h incubation
Procedure: (§3) Briefly, cells were fixed with 4% paraformaldehyde and 0.1% Glutaraldehyde in PBS, seeded at a density of 1×10⁴ cells/well and incubated with a dilution series of ISVD F027100187 or reference compound anti-hOX40L mAb, named Comparator 3, starting from 100 nM […] 0.5 μM, for 48 hours at room temperature. Comparator 3 is a standard conventional monoclonal antibody directed against human OX40L, which is used as a reference throughout the Examples 1 to 12 described herein. Cells were washed 3 times and subsequently incubated with an anti-VHH mAb (ABH00119) for 30 min at 4° C., washed again, and incubated for 30 min at 4° C. with a goat anti-mouse PE or FITC labeled antibody. Samples were washed and resuspended in FACS Buffer (D-PBS with 10% FBS and 0.05% sodium azide supplemented with 5 nM TOPRO3). Cell suspensions were then analyzed on an iQuescreener. EC50 values were calculated using GraphPad Prism.

[12] = target: T3, membrane bound human OX40L on CHO-KI …; experiment: flow cytometry on fixed CHO-KI cells expressing human OX40L, 48 h incubation
Procedure: as §3

T2 sequence (Q0PW92 entry or part of it): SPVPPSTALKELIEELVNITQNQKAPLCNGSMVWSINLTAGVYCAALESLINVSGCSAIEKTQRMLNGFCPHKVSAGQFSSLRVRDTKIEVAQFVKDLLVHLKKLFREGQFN
T1 sequence (P35225 35-146 limits assumed): as the sequence (Q0PW92 entry or part of it) above, with S1G, K10R, V42M, N67S, R83H, V100L counted along it

B1: ISVD construct F027100187 (other)
chain: DVQLVESGGGVVQPGGSLRLSCAASRSIGRYDRMGWYRHRPGEPRELVATITGGSSINYGDSVKGRFTISIDNSKNTVYLQMNSLRPEDTALYYCNFNKYQISRDTWGQGTLVTVSSGGGGSGGGSEVQLVESGGGVVQPGGSLRLSCAASGRTFSSYRMGWFRQAPGKEREFVAALSGDGYSTYTANSVKGRFTISRDNSKNTVYLQMNSLRPEDTALYYCAAKLQYVSGWSYDYPYWGQGTLVTVSSGGGGSGGGSEVQLVESGGGVVQPGGSLRLSCAASGFTFRSFGMSWVRQAPGKGPEWVSSISGSGSDTLYADSVKGRFTISRDNSKNTLYLQMNSLRPEDTALYYCTIGGSLSRSSQGTLVTVSSGGGGSGGGSEVQLVESGGGVVQPGGSLRLSCAASGFTFNNYAMKWVRQAPGKGLEWVSSITTGGGSTDYADSVKGRFTISRDNSKNTLYLQMNSLRPEDTALYYCANVPFGYYSEHFSGLSFDYRGQGTLVTVSSA
notes: Tetravalent, trispecific single-chain construct of four VHH (ISVD) domains: one against OX40L, two against IL-13, one against serum albumin; also called F0271000187; F27100187
In the case of B1, the “eotaxin release assay (IC50, pM)” value [1] is reported as 259 pM, the “eotaxin release assay (IC50, pM)” value [2] is reported as 1940 pM and the “eotaxin release assay (IC50, pM)” value [3] is reported as 858 pM. The “PBMC activity assay IC50” value [4] was 1.9 nM, the “PBMC activity assay IC50” value [5] was 14 nM and the “CCL26 IC50 (pM), triculture assay” value [6] was 40.7 pM. For the same binder, the Kd [7] was 7.8 nM, the Kd [8] was 9.6 nM and the Kd [9] was 0.0059 nM. It also gave a Kd [10] of 0.0082 nM, an EC50 [11] of 0.0363 nM and an EC50 [12] of 0.0235 nM.
